Tests used:
[1] = target: T1, FLAG-tagged full-length human RINT1 I152M (human, UniProt Q6NUQ1 1-792, I152M); assay: co-IP; FLAG-RINT1 plasmids co-transfected with the UVRAG plasmid into HEK293T; lysate in TNE buffer (10 mM Tris acetate, 0.5% NP-40, 2 mM EDTA); anti-FLAG M2 affinity gel overnight, eluted with FLAG peptide; blot for UVRAG, quantified; conditions: partners not purified
T1 construct: The change copies a variant of the B6 mouse Rint1 allele into human RINT1; The results sentence on UVRAG prints I152T; the methods made only I152M; also called RINT1 n.456A>G (I152M); RINT1 I152M allele; source: HEK293T, transfected, in lysate
T1 sequence (Q6NUQ1 whole entry I152M): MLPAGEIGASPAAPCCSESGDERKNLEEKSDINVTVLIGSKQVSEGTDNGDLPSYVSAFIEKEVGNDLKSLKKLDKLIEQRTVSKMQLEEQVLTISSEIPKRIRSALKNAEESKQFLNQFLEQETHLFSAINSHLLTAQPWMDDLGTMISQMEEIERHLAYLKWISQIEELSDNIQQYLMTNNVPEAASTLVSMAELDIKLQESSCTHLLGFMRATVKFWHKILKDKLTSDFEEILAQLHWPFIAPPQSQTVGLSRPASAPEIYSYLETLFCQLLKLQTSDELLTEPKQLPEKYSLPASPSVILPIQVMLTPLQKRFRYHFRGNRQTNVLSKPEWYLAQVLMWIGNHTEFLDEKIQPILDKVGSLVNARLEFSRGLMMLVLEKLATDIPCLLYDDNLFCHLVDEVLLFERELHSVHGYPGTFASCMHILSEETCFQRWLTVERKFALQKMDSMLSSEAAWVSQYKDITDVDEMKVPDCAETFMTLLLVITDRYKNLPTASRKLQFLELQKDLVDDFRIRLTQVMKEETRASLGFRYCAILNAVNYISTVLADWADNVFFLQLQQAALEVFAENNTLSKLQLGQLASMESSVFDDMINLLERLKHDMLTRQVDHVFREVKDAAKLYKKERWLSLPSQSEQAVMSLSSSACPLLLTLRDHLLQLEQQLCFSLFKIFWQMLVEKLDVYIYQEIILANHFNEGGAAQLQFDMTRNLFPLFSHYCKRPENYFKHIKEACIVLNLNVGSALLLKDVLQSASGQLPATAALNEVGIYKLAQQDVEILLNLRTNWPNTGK

[2] = target: T2, FLAG-tagged full-length human RINT1 I152M; I168T (human, UniProt Q6NUQ1 1-792, I152M | I168T); assay: as above; conditions: partners not purified
T2 construct: The results sentence on UVRAG prints I152T;I168T; the methods made only I152M and I168T together; also called RINT1 n.456A>G; n.503T>C (I152M and I168T); source: HEK293T, transfected, in lysate
T2 sequence (Q6NUQ1 whole entry I152M/I168T): as the sequence (Q6NUQ1 whole entry I152M) above, with I168T counted along it

B1: UVRAG expressed from pCl-neo-HA-hUVRAG (natural protein, human, UniProt Q9P2Y5 1-699, looked up)
chain: MSASASVGGPVPQPPPGPAAALPPGSAARALHVELPSQQRRLRHLRNIAARNIVNRNGHQLLDTYFTLHLCSTEKIYKEFYRSEVIKNSLNPTWRSLDFGIMPDRLDTSVSCFVVKIWGGKENIYQLLIEWKVCLDGLKYLGQQIHARNQNEIIFGLNDGYYGAPFEHKGYSNAQKTILLQVDQNCVRNSYDVFSLLRLHRAQCAIKQTQVTVQKIGKEIEEKLRLTSTSNELKKKSECLQLKILVLQNELERQKKALGREVALLHKQQIALQDKGSAFSAEHLKLQLQKESLNELRKECTAKRELFLKTNAQLTIRCRQLLSELSYIYPIDLNEHKDYFVCGVKLPNSEDFQAKDDGSIAVALGYTAHLVSMISFFLQVPLRYPIIHKGSRSTIKDNINDKLTEKEREFPLYPKGGEKLQFDYGVYLLNKNIAQLRYQHGLGTPDLRQTLPNLKNFMEHGLMVRCDRHHTSSAIPVPKRQSSIFGGADVGFSGGIPSPDKGHRKRASSENERLQYKTPPPSYNSALAQPVTTVPSMGETERKITSLSSSLDTSLDFSKENKKKGEDLVGSLNGGHANVHPSQEQGEALSGHRATVNGTLLPSEQAGSASVQLPGEFHPVSEAELCCTVEQAEEIIGLEATGFASGDQLEAFNCIPVDSAVAVECDEQVLGEFEEFSRRIYALNENVSSFRRPRRSSDK
notes: UVRAG, human (hUVRAG), from the plasmid pCl-neo-HA-hUVRAG (Itakura et al. 2008); Detected with an anti-UVRAG antibody; source: HEK293T, transfected, in lysate
[1]
  fold change of UVRAG co-immunoprecipitation against wild-type RINT1: ≥ 2 fold
[2]
  fold change of UVRAG co-immunoprecipitation against wild-type RINT1: ≥ 2 fold

From article PMC5339343, “Evaluation of Rint1 as a modifier of intestinal tumorigenesis and cancer risk” (PLoS ONE, 2017)
